Legend:
[1] = molecular target: HLA-A*02:06; assay: IEDB peptide-MHC binding, purified MHC/competitive/radioactivity; filed as Kd, often an IC50 or EC50 that approximates it; ≥ and ≤ were set here for values at or beyond the usual limits of such assays
[2] = molecular target: HLA-A*02:02; assay: as above
[3] = molecular target: HLA-A*02:03; assay: as above
[4] = molecular target: HLA-A*02:01; assay: IEDB peptide-MHC binding, purified MHC/direct/fluorescence; filed as Kd, often an IC50 or EC50 that approximates it; ≥ and ≤ were set here for values at or beyond the usual limits of such assays
[5] = molecular target: HLA-B*53:01; assay: IEDB peptide-MHC binding, purified MHC/competitive/radioactivity; filed as Kd, often an IC50 or EC50 that approximates it; ≥ and ≤ were set here for values at or beyond the usual limits of such assays
[6] = molecular target: HLA-A*02:01; assay: IEDB peptide-MHC binding, purified MHC/competitive/fluorescence; ≥ and ≤ were set here for values at or beyond the usual limits of such assays
[7] = molecular target: HLA-A*30:02; assay: IEDB peptide-MHC binding, purified MHC/competitive/radioactivity; filed as Kd, often an IC50 or EC50 that approximates it; ≥ and ≤ were set here for values at or beyond the usual limits of such assays; conditions: source organism: Dengue virus 1 Singapore/S275/1990
[8] = molecular target: HLA-B*07:02; assay: IEDB peptide-MHC binding, purified MHC/direct/fluorescence; filed as Kd, often an IC50 or EC50 that approximates it; ≥ and ≤ were set here for values at or beyond the usual limits of such assays
[9] = molecular target: HLA-B*46:01; assay: as above; conditions: source organism: Yellow fever virus
[10] = molecular target: HLA-A*69:01; assay: as above; conditions: source organism: Amur virus
[11] = molecular target: HLA-A*26:01; assay: IEDB peptide-MHC binding, purified MHC/competitive/radioactivity; filed as Kd, often an IC50 or EC50 that approximates it; ≥ and ≤ were set here for values at or beyond the usual limits of such assays
[12] = molecular target: HLA-B*51:01; assay: as above
[13] = molecular target: HLA-A*24:02; assay: as above
[14] = molecular target: HLA-B*58:01; assay: IEDB peptide-MHC binding, purified MHC/direct/fluorescence; filed as Kd, often an IC50 or EC50 that approximates it; ≥ and ≤ were set here for values at or beyond the usual limits of such assays; conditions: source organism: Salmonella enterica subsp. enterica serovar Typhimurium
[15] = molecular target: HLA-B*15:01; assay: as above; conditions: source organism: Salmonella enterica subsp. enterica serovar Typhimurium
[16] = source organism: Vaccinia virus WR
[17] = source organism: SARS coronavirus Tor2
[18] = source organism: Dengue virus 3 Martinique/1243/1999
[19] = source organism: Sudan ebolavirus
[20] = source organism: Dengue virus 2 Jamaica/1409/1983
[21] = source organism: Mammarenavirus guanaritoense
[22] = source organism: Dengue virus 4 Philippines/H241/1956
[23] = source organism: Dengue virus 1 Brazil/97-11/1997
[24] = source organism: Vaccinia virus Copenhagen
[25] = source organism: Salmonella enterica subsp. enterica serovar Typhimurium

NIEIMDKEQL
Kd [1, 16]: 5650 nM
Kd [2, 16]: 3470 nM
Kd [3, 16]: 15500 nM

NLWNTFTRL
Kd [1, 17]: 166 nM
Kd [2, 17]: 24 nM
Kd [3, 17]: 194 nM

NLYISDYKM
Kd [1, 16]: 11000 nM
Kd [2, 16]: 2790 nM
Kd [3, 16]: ≥ 25300 nM

NVLAWLYAA
Kd [1, 17]: 1.58 nM
Kd [2, 17]: 7.31 nM
Kd [3, 17]: 15.3 nM

PLTYLEYPI
Kd ([4]; source organism: Homo sapiens): 2860 nM

PPTAGVLARW
Kd [5, 18]: 4930 nM

PTLFGRGVI
Kd [1, 16]: ≥ 64800 nM
Kd [2, 16]: ≥ 30300 nM
Kd [3, 16]: 6730 nM

QGDNDNWWT
IC50 ([6]; source organism: Zaire ebolavirus): ≥ 283000 nM

QLSGLGINAV
IC50 ([6]; source organism: Hepatitis C virus subtype 1b): 123 nM

QVKDNIISRT
Kd [1, 16]: ≥ 34200 nM
Kd [2, 16]: 17800 nM
Kd [3, 16]: 421 nM

RFKGEDGCWY
Kd [7]: 8.19 nM

RIKSVLDII
Kd [1, 16]: 2080 nM
Kd [2, 16]: 111 nM
Kd [3, 16]: 17.6 nM

RLPSETFPNV
Kd [1, 16]: 0.584 nM
Kd [2, 16]: 173 nM
Kd [3, 16]: 14.1 nM

RPKSNIVLL
Kd ([8]; source organism: Homo sapiens): 200 nM

RPPIFIRRL
Kd ([8]; source organism: Human herpesvirus 4 strain B95-8): 356 nM

RSGVPPKVV
IC50 [6, 19]: ≥ 80200 nM

SAEDNYLAKL
Kd [1, 16]: ≥ 69800 nM
Kd [2, 16]: ≥ 70000 nM
Kd [3, 16]: ≥ 70400 nM

SARALKAYFT
Kd [1, 16]: ≥ 25700 nM
Kd [2, 16]: ≥ 21600 nM
Kd [3, 16]: 7810 nM

SASDMQKFTI
Kd [1, 16]: 4250 nM
Kd [2, 16]: 10800 nM
Kd [3, 16]: 1220 nM

SIQDNQVAY
Kd [9]: 19700 nM

SLFSLLPGV
Kd [10]: ≤ 1 nM
Kd ([4]; source organism: Amur virus): ≤ 1 nM

SVDVDIYDA
Kd [1, 16]: 953 nM
Kd [2, 16]: 1200 nM
Kd [3, 16]: 11900 nM

SVIEKMETL
Kd [11, 20]: 152 nM

TIAVSVYGA
Kd [1, 16]: 98.7 nM
Kd [2, 16]: 25.4 nM
Kd [3, 16]: 9.89 nM

TLPELNLSL
Kd [1, 16]: 802 nM
Kd [2, 16]: 135 nM
Kd [3, 16]: 22.6 nM

TMSIYIAVA
Kd [1, 16]: 786 nM
Kd [2, 16]: 80.9 nM
Kd [3, 16]: 40.8 nM

TNAEFTFQL
Kd [1, 21]: 3620 nM
Kd [2, 21]: 404 nM
Kd [3, 21]: 15000 nM

TPVHSWEDI
Kd [12, 22]: 16000 nM
Kd [5, 22]: 2220 nM

TQVKELGIAI
Kd [1, 16]: 3.87 nM
Kd [2, 16]: 2170 nM
Kd [3, 16]: 704 nM

TSIGLLCVM
Kd ([11]; source organism: Dengue virus 1 Singapore/S275/1990): 2450 nM

TTLPSQNST
IC50 [6, 19]: ≥ 206000 nM

TVITPMMRH
Kd [11, 23]: 1700 nM

TWAKNIQTAI
Kd [13, 20]: 512 nM

VGMGEAAAIF
Kd [13, 23]: 8640 nM

VLIAGIILLI
Kd [1, 24]: 1020 nM
Kd [2, 24]: 8.84 nM
Kd [3, 24]: 34.6 nM

VLTSVDIETA
Kd [1, 16]: 1410 nM
Kd [2, 16]: 62.4 nM
Kd [3, 16]: 421 nM

VMATEEPTT
IC50 [6, 19]: ≥ 144000 nM

VMYAFTTPLI
Kd [1, 16]: 11.6 nM
Kd [2, 16]: 0.718 nM
Kd [3, 16]: 4.82 nM

VPLAGPLIA
Kd [12, 23]: 14800 nM

VPLQWIASAI
Kd ([12]; source organism: Dengue virus 3 Sri Lanka/1266/2000): 21.7 nM

VQYRILPMII
Kd [1, 16]: 395 nM
Kd [2, 16]: 10100 nM
Kd [3, 16]: 606 nM

VVIVENDNVI
Kd [1, 16]: 10700 nM
Kd [2, 16]: 14700 nM
Kd [3, 16]: 10200 nM

WISDNTHIYL
Kd [1, 16]: 1.77 nM
Kd [2, 16]: 0.143 nM
Kd [3, 16]: 1.16 nM

WPLNEAIMAV
Kd [12, 20]: 470 nM

WYGMEIRPI
Kd [13, 18]: 3020 nM

YASALVLLI
Kd [1, 17]: 8.7 nM
Kd [2, 17]: 3.2 nM
Kd [3, 17]: 4.87 nM

YLGPTIRVW
Kd [14]: 127 nM
Kd [15]: 1220 nM
Kd [4, 25]: 1870 nM
Kd [8, 25]: 13200 nM

YLLFNHFSV
Kd [1, 16]: 0.725 nM
Kd [2, 16]: 1.24 nM
Kd [3, 16]: 1.59 nM
